Laboratory results: patent US20190218304A1 (INNATE PHARMA, published 2019)
Numbering of substitutions follows the chain as printed.

How the values were obtained:
[1] = target: T1, human CD39 expressed on cells (human, UniProt P49961 1-510); assay: flow cytometry on Hek-293T cells transfected with wild-type CD39 (unstained cells, US: 10,3) [panel WT]
T1 construct: On CHO transfectants, HEK-293T transfectants (wild type), Ramos lymphoma cells or monocyte-derived dendritic cells, as named under assay; also called huCD39; CHO-huCD39
T1 sequence: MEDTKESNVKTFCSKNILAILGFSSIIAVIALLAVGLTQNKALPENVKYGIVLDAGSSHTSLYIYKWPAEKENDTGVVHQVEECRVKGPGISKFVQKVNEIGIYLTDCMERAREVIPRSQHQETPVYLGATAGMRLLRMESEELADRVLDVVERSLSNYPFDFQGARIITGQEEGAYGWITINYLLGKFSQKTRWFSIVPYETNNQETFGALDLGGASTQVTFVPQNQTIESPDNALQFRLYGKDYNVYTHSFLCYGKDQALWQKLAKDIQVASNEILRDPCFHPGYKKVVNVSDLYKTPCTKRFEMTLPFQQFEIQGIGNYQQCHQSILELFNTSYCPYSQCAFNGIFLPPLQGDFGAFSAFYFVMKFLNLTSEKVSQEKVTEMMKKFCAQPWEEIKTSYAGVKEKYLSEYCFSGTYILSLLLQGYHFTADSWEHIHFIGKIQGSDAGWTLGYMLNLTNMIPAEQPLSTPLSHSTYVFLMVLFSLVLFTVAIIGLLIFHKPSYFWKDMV

[2] = target: T2, CD39 mutant 19 (human, UniProt P49961 1-510); assay: flow cytometry on Hek-293T cells transfected with CD39 mutant 19 [panel M19]
T2 construct: Expressed on transfected Hek-293T cells; also called M19
T2 chain: T1 sequence with R138A, M139A, E142K

[3] = target: T1, human CD39 expressed on cells; assay: flow cytometry titration on Ramos lymphoma cells, first experiment; Ramos cells, first set of experiments
Procedure: (§1) Cells were incubated with various concentration of unlabeled anti-CD39 antibody from 30 μg/ml to 5×10⁻⁴ μg/ml, for 30 minutes at 4° C. After washes, cells were incubated with Goat anti-mouse H+L labeled secondary antibody for 30 min at 4° C.

[4] = target: T1, human CD39 expressed on cells; assay: flow cytometry titration on CHO cells expressing human CD39, labeled secondary antibody [panel CHO-huCD39]
Procedure: as §1

[5] = target: T3, Human CD39-L2 (human, UniProt O75354 61-484, limits assumed); assay: ELISA on coated recombinant human CD39-L2 [panel huCD39 L2]
T3 construct: Recombinant protein coated in ELISA; also called NTPDase6; ENTPD6
T3 sequence: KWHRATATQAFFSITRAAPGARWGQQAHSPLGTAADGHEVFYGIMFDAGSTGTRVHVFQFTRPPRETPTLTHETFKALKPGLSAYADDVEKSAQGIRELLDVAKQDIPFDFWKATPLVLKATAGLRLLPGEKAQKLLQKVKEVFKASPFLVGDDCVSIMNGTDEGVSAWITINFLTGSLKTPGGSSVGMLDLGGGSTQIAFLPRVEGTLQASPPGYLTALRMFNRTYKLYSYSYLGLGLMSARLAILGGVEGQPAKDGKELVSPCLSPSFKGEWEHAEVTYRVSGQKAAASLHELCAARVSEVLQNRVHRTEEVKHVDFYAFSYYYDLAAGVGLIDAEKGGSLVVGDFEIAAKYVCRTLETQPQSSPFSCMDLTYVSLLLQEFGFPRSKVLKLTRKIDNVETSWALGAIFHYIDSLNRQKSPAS
Procedure: (§2) Wells were washed in TBS Tween 20, and further saturated 2H at RT in TBS Blocking buffer. Dose range concentration of primary antibody was incubated in TBS blocking buffer for 2 h at RT. Wells were washed in TBS Tween 20. […] Optical density was measured on Enspire™ at OD=450.

[6] = target: T1, human CD39 expressed on cells; assay: flow cytometry titration on Ramos lymphoma cells, second experiment; Ramos cells, second set of experiments
Procedure: as §1

[7] = target: T4, Human CD39-L3 (human, UniProt O75355 44-485, limits assumed); assay: ELISA on coated recombinant human CD39-L3 [panel huCD39 L3]
T4 construct: Recombinant protein coated in ELISA; also called NTPDase3; ENTPD3
T4 sequence: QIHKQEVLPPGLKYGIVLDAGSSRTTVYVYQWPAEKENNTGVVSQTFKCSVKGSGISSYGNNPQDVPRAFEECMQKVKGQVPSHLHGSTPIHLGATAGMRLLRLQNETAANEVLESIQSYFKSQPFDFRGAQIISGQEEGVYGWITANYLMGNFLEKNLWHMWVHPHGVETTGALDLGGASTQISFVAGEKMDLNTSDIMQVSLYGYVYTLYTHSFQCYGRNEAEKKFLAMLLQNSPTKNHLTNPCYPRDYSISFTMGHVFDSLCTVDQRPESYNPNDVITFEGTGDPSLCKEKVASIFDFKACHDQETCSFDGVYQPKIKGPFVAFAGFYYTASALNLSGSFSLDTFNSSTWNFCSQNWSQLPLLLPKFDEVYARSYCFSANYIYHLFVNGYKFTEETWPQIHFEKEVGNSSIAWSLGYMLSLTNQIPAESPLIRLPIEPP
Procedure: as §2

Median : Comp-Alexa Fluor 647-A [1]: 3720
binding result [2]: no binding
EC50 [3]: 0.16 µg/mL
EC50 (read off the curve) [4]: ~0.2 µg/mL
binding result [5]: no binding
EC50 [6]: 0.19 µg/mL
binding result [7]: no binding
B1: antibody I-394 (antibody, human IgG1, kappa, V domains shown)
VH: EVQLQQSGPELVKPGASVKMSCKASGYTFTDYNMHWVKQSHGRTLEWIGYIVPLNGGSTFNQKFKGRATLTVNTSSRTAYMELRSLTSEDSAAYYCARGGTRFAYWGQGTLVTVSA
VL: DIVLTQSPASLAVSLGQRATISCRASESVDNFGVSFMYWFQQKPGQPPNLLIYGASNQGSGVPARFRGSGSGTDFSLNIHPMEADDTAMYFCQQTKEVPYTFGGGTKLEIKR
notes: The hybridoma-derived mouse form was used in early screening
